Measurements reported in the supplement of paper PMC10567573.

B1: SOAT2 (parent)
chain: SLGKQKVFIIRKSLLDELMEVQHF

Variants of: B1
Assay: protein stability index of a GFP-peptide fusion (GPS, HEK-293T) (PSI 1-6); higher = more stable
Details: c terminus: a fixed tail appended
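Further: lentivirally expressed fusions sorted by FACS into six bins by GFP to DsRed ratio, PSI derived from sequencing read proportions per bin multiplied by bin number.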

Variant | protein stability index
F24H | 1.36
F24T | 1.8
F24N | 1.9
F24E | 1.71
F24Q | 2.75
F24Y | 2.74
F24P | 2.27
F24R | 2.03
F24D | 2.65
F24M | 2.2
F24C | 2.09
F24G | 1.68
F24S | 2.25
F24W | 2.78
F24L | 2.18
F24I | 2.9
F24K | 2.4
F24A | 1.8
E20D | 1.63
E20F | 3.11
E20C | 2.19
E20H | 1.45
E20I | 2.03
E20M | 2.66
E20L | 3.13

Variant | protein stability index
E20Y | 2.9
E20P | 1.45
E20R | 2.84
E20N | 3.04
E20K | 2.57
E20V | 1.83
E20S | 2.48
E20G | 2.85
E20Q | 1.62
E20T | 2.8
L15C | 2.08
L15M | 2.37
L15P | 1.56
L15N | 1.88
L15R | 2.41
L15T | 1.54
L15S | 2.23
L15H | 1.78
L15I | 2.35
L15Y | 1.52
L15Q | 1.8
L15E | 2.29
L15A | 1.6
L15F | 3.01
L15W | 2.68

Variant | protein stability index
L15D | 2.38
L15V | 1.78
L15K | 3.07
L15G | 2.5
L14M | 2.25
L14E | 2
L14S | 3.11
L14V | 2.22
L14D | 2.19
L14T | 2
L14A | 2.72
L14H | 2.86
L14G | 2.2
L14N | 2.26
L14F | 2.52
L14Q | 1.64
L14C | 1.85
L14Y | 2.03
L14R | 2.64
L14P | 2.43
L14K | 1.69
L14I | 3.27
E17Y | 1.85
E17V | 3.36
E17C | 3.21

Variant | protein stability index
E17P | 2.21
E17G | 2.81
E17M | 2.7
E17D | 2.51
E17R | 2.41
E17I | 2.86
E17F | 2.52
E17S | 3.09
E17N | 2.79
E17T | 3.87
E17L | 2.79
E17A | 3.06
E17Q | 3.16
E17W | 3.08
E17K | 2.17
E17H | 4.16
M19A | 3.02
M19D | 2.24
M19V | 1.66
M19N | 3.23
M19S | 2.25
M19Y | 1.36
M19Q | 2.25
M19T | 1.74
M19F | 3.18

Variant | protein stability index
M19I | 2.25
M19P | 2.08
M19L | 2.67
M19W | 2.41
M19G | 2.23
M19H | 2.93
M19E | 1.69
M19K | 2.89
M19C | 2.15
M19R | 1.94
Q22W | 2.77
Q22F | 2.2
Q22T | 3.05
Q22R | 3.46
Q22M | 2.09
Q22C | 2.01
Q22V | 1.49
Q22G | 3.24
Q22P | 1.79
Q22H | 1.91
Q22S | 1.68
Q22K | 2.35
Q22N | 2.22
Q22D | 1.91
Q22Y | 2.55

Variant | protein stability index
Q22E | 2.74
Q22L | 2.24
Q22A | 2.4
D16H | 2.86
D16F | 2.19
D16I | 2.98
D16G | 2.76
D16L | 3.27
D16A | 1.7
D16R | 4.61
D16Y | 3.13
D16W | 3.25
D16C | 2.63
D16T | 2.14
D16M | 3.67
D16Q | 2.44
D16P | 2.02
D16E | 2.39
D16N | 3.3
D16S | 2.09
V21P | 2.16
V21E | 1.99
V21K | 2.08
V21W | 2.46
V21H | 2.23

Variant | protein stability index
V21N | 2
V21T | 1.93
V21Y | 2.38
V21Q | 4
V21L | 2
V21D | 1.74
V21G | 1.77
V21S | 2.63
V21M | 1.89
V21I | 3.07
V21A | 3.1
V21R | 2.92
V21C | 3.18
V21F | 2.85
H23I | 2.72
H23S | 1.79
H23Q | 2.31
H23T | 2.07
H23N | 2.52
H23D | 1.67
H23K | 1.41
H23E | 1.9
H23W | 3.71
H23R | 1.66
H23A | 2.24

Variant | protein stability index
H23F | 1.87
H23Y | 2.64
H23G | 1.86
H23V | 3.33
H23M | 1.69
H23P | 2.65
H23C | 2.69
L18H | 1.85
L18N | 2.54
L18E | 1.8
L18Y | 2.46
L18A | 1.46
L18V | 2.5
L18P | 1.38
L18F | 1.41
L18T | 1.31
L18C | 1.95
L18S | 1.25
L18D | 2.01
L18K | 2.11
L18Q | 2.21
L18R | 1.98
L18G | 2.62
L18I | 2.71
L18M | 1.7

Variant | protein stability index
S13Y | 2.52
S13K | 1.67
S13D | 3.49
S13A | 1.43
S13V | 1.88
S13M | 2.22
S13H | 2.48
S13E | 2.55
S13F | 3.49
S13T | 2.4
S13G | 1.33
S13R | 2.86
S13W | 1.73
S13L | 2.24
S13N | 2.86
S13P | 1.99
S13I | 3.3
S13Q | 1.69
S13C | 2.25
K12W | 3.49
K12T | 3.09
K12V | 3.02
